This is an account of results in PMC3163069.

The target in test [1] is Id (pBIND-Id, fusion with the DNA-binding domain of yeast gal4). The test is described as follows: two-hybrid.
Test [2] has the same target. The test can be described thus: two-hybrid. The source holds these as a separate data set.

Like-named read-outs stand apart in the source and are kept apart here.

As to “MyoD (pACT-MyoD, fusion with the VP16 transactivation domain of herpes simplex virus) (natural protein)”, the luciferase reporter activation over basal (two-hybrid) in test [1] is 70 fold; in test [2], 10 fold.
